In general, Km refers to the substrate concentration at which the rate is half of its maximum. As usually defined, the kcat is the maximal rate divided by the concentration of active sites. For orientation: kcat/Km means the turnover number divided by the Michaelis constant.

Details in all cases: Homo sapiens
Substrate in series [1]: O=c1ccc2nc3ccc(OCc4ccc(OP(=O)(O)O)cc4)cc3oc-2c1
The series can be described thus: (§1) Binding affinity to ALP (unknown origin).

Substrate in series [2]: O=c1ccc2nc3ccc(OP(=O)(O)O)cc3oc-2c1
The description is as §1.

Substrate in series [3]: O=c1ccc2nc3ccc(OCc4ccc(OP(=O)(O)O)cc4)cc3oc-2c1
The series can be described thus: (§2) Binding affinity to ALP (unknown origin) assessed as catalytic constant.

Substrate in series [4]: O=c1ccc2nc3ccc(OP(=O)(O)O)cc3oc-2c1
The series is described as §2.

Substrate in series [5]: O=c1ccc2nc3ccc(OCc4ccc(OP(=O)(O)O)cc4)cc3oc-2c1
The series can be described thus: (§3) Binding affinity to ALP (unknown origin) assessed as Kcat/Km.

Substrate in series [6]: O=c1ccc2nc3ccc(OP(=O)(O)O)cc3oc-2c1
The description is as §3.

B1: Alkaline phosphatase, germ cell type (Homo sapiens), P10696 (protein)
chain: MQGPWVLLLLGLRLQLSLGIIPVEEENPDFWNRQAAEALGAAKKLQPAQTAAKNLIIFLGDGMGVSTVTAARILKGQKKDKLGPETFLAMDRFPYVALSKTYSVDKHVPDSGATATAYLCGVKGNFQTIGLSAAARFNQCNTTRGNEVISVMNRAKKAGKSVGVVTTTRVQHASPAGAYAHTVNRNWYSDADVPASARQEGCQDIATQLISNMDIDVILGGGRKYMFPMGTPDPEYPDDYSQGGTRLDGKNLVQEWLAKHQGARYVWNRTELLQASLDPSVTHLMGLFEPGDMKYEIHRDSTLDPSLMEMTEAALLLLSRNPRGFFLFVEGGRIDHGHHESRAYRALTETIMFDDAIERAGQLTSEEDTLSLVTADHSHVFSFGGYPLRGSSIFGLAPGKARDRKAYTVLLYGNGPGYVLKDGARPDVTESESGSPEYRQQSAVPLDGETHAGEDVAVFARGPQAHLVHGVQEQTFIAHVMAFAACLEPYTACDLAPRAGTTDAAHPGPSVVPALLPLLAGTLLLLGTATAP
In the case of B1, the Michaelis-Menten constant (Km) in series [1] came out at 15.3 µM; in series [2], 24.6 µM. Moreover, the values for the catalytic constant (kcat) in series [3] and in series [4] were 0.26 s⁻¹ and 0.16 s⁻¹, respectively. The results for the specificity constant (kcat/Km) in series [5] and in series [6] were 1.7 10^4/M/s and 6.58 10^3/M/s, respectively.

The record behind these values is ChEMBL document CHEMBL5226320, “A versatile toolbox for investigating biological processes based on quinone methide chemistry: From self-immolative linkers to self-immobilizing agents” (Bioorg Med Chem, 2021).
